According to patent US20220249640A1 (Dana-Farber, published 2022):
Blank lines part the entries; values can stand above or below the binder they belong to.

Experiments:
[1] = target: human PD-1 on cells (human, UniProt Q15116 25-288); experiment: cell-based or functional assay
[2] = target: T1, PD-1 (soluble, biotinylated, on sensors or coated on plates) (human, UniProt Q15116 25-167, limits assumed, biotinylated (avi tag, Avidity's biotinylation kit) in the Octet assays); experiment: method not stated at the list; Octet curves of the mutants in FIG. 23
T1 construct: also called biotinylated PD-1; soluble PD1
T1 sequence (Q15116 25-167 limits assumed): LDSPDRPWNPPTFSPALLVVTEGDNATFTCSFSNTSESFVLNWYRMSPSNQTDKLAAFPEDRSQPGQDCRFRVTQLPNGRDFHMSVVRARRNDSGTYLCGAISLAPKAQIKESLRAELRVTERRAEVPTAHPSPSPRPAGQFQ

[3] = target: T1, PD-1 (soluble, biotinylated, on sensors …); experiment: Octet (BLI)
[4] = target: T2, mouse PD-1 on transiently transfected Expi293 cells (mouse, UniProt Q02242 25-288); experiment: flow cytometry on transiently transfected Expi293 cells, anti human Fc-APC
T2 construct: whole, on cells; also called mPD-1
T2 sequence (looked up): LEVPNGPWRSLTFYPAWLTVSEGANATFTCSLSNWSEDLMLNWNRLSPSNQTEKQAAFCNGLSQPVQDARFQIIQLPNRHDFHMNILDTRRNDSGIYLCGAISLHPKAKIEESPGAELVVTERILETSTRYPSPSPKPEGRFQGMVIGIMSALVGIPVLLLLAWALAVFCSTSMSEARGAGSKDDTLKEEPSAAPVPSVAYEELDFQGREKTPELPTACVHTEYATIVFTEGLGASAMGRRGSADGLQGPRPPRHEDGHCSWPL
Description: 3E5 transiently transfected Expi293 cells were suspended in 100 ul MACS buffer and added to each well. 50 ul of each antibody dilution were then mixed with the cells and the plate was incubated at 4° C. for 30 min. Following incubation, the plate was washed 2× with MACS buffer and then incubated with lul/well anti human Fc-APC (Biolegend #409306). The plate was incubated for 25 min at 4° C. and then washed 3× before running the samples.

Chain of human PD-1 on cells (Q15116 25-288): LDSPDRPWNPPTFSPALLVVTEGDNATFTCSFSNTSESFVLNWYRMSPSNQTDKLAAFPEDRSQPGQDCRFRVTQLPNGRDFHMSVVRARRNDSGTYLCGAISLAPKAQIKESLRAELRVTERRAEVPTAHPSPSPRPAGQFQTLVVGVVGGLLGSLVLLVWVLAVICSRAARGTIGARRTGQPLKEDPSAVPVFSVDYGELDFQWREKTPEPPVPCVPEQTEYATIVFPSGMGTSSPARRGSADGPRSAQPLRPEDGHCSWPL

B1: P4-B3 IgG1 wild type monomer (antibody, V domains shown)
VH: QVQLVQSGGGLVQPGRSLRLSCAASGFTFDDYAMHWVRQAPGKGLEWVSGISWNSGSIGYADSVKGRFTVSRDNAKNSLYLQMNSLRAEDTAVYYCASDYGDKYYYYGMDVWGKGTTVTVSS
VL: QPGLTQPPSASGTPGQRVTISCSGSSSNIGSNTVNWYQQFPGKAPKLLIFNDNQRPSGVPDRFSASKSGTSASLAISGLQSEDEADYYCAAWDGGLNGRGVFGGGTKLTVLG
- fold induction (RLU stimulated/RLU unstimulated), Promega PD1-PDL1 bioassay [1]: ~0.5 fold of the signal of pembro and nivo

B2: P4-B3 minibody (scFv-Fc) (Fc fusion)
scFv: QVQLVQSGGGLVQPGRSLRLSCAASGFTFDDYAMHWVRQAPGKGLEWVSGISWNSGSIGYADSVKGRFTVSRDNAKNSLYLQMNSLRAEDTAVYYCASDYGDKYYYYGMDVWGKGTTVTVSSGGGGSGGGGSGGGGSQPGLTQPPSASGTPGQRVTISCSGSSSNIGSNTVNWYQQFPGKAPKLLIFNDNQRPSGVPDRFSASKSGTSASLAISGLQSEDEADYYCAAWDGGLNGRGVFGGGTKLTVL
notes: scFv-Fc (minibody) format; also called P4-B3 WT; P4-B3 wild type; not shown: Fc (hinge-CH2-CH3) of the minibody vector and its junction to the scFv
- EC50, Promega PD1-PDL1 bioassay (scFv-Fc format) [1]: 1.75 fold of the EC50 of Nivo
- Kd [2]: ~1 nM

Now from value to binder:

- koff [3]: 6.45e-05 s⁻¹
- kon [3]: 68500 M⁻¹ s⁻¹
B3: P4-B3 scFv (scFv)
scFv: QVQLVQSGGGLVQPGRSLRLSCAASGFTFDDYAMHWVRQAPGKGLEWVSGISWNSGSIGYADSVKGRFTVSRDNAKNSLYLQMNSLRAEDTAVYYCASDYGDKYYYYGMDVWGKGTTVTVSSGGGGSGGGGSGGGGSQPGLTQPPSASGTPGQRVTISCSGSSSNIGSNTVNWYQQFPGKAPKLLIFNDNQRPSGVPDRFSASKSGTSASLAISGLQSEDEADYYCAAWDGGLNGRGVFGGGTKLTVL
notes: This is a single chain Fv; VH and VL are joined by a G4S linker of which only the DNA is printed

- binding result [4]: binds
B4: P4-B3 (format not stated) (antibody, V domains shown)
VH: QVQLVQSGGGLVQPGRSLRLSCAASGFTFDDYAMHWVRQAPGKGLEWVSGISWNSGSIGYADSVKGRFTVSRDNAKNSLYLQMNSLRAEDTAVYYCASDYGDKYYYYGMDVWGKGTTVTVSS
VL: QPGLTQPPSASGTPGQRVTISCSGSSSNIGSNTVNWYQQFPGKAPKLLIFNDNQRPSGVPDRFSASKSGTSASLAISGLQSEDEADYYCAAWDGGLNGRGVFGGGTKLTVL
notes: It was detected with anti human Fc-APC
